# Test results taken from IntAct's records for PubMed 34075876.
# B1: Protein TOPLESS (Arabidopsis thaliana (Mouse-ear cress)), Q94AI7 (parent)
# chain: MSSLSRELVFLILQFLDEEKFKETVHKLEQESGFFFNMKYFEDEVHNGNWDEVEKYLSGFTKVDDNRYSMKIFFEIRKQKYLEALDKHDRPKAVDILVKDLKVFSTFNEELFKEITQLLTLENFRENEQLSKYGDTKSARAIMLVELKKLIEANPLFRDKLQFPTLRNSRLRTLINQSLNWQHQLCKNPRPNPDIKTLFVDHSCGPPNGARAPSPVNNPLLGGIPKAGGFPPLGAHGPFQPTASPVPTPLAGWMSSPSSVPHPAVSAGAIALGGPSIPAALKHPRTPPTNASLDYPSADSEHVSKRTRPMGISDEVNLGVNMLPMSFSGQAHGHSPAFKAPDDLPKTVARTLSQGSSPMSMDFHPIKQTLLLVGTNVGDIGLWEVGSRERLVQKTFKVWDLSKCSMPLQAALVKEPVVSVNRVIWSPDGSLFGVAYSRHIVQLYSYHGGEDMRQHLEIDAHVGGVNDISFSTPNKQLCVITCGDDKTIKVWDAATGVKRHTFEGHEAPVYSVCPHYKENIQFIFSTALDGKIKAWLYDNMGSRVDYDAPGRWCTTMAYSADGTRLFSCGTSKDGESFIVEWNESEGAVKRTYQGFHKRSLGVVQFDTTKNRYLAAGDDFSIKFWDMDAVQLLTAIDGDGGLQASPRIRFNKEGSLLAVSGNENVIKIMANSDGLRLLHTFENISSESSKPAINSIAAAAAAAATSAGHADRSANVVSIQGMNGDSRNMVDVKPVITEESNDKSKIWKLTEVSEPSQCRSLRLPENLRVAKISRLIFTNSGNAILALASNAIHLLWKWQRNERNATGKATASLPPQQWQPASGILMTNDVAETNPEEAVPCFALSKNDSYVMSASGGKISLFNMMTFKTMATFMPPPPAATFLAFHPQDNNIIAIGMDDSTIQIYNVRVDEVKSKLKGHSKRITGLAFSNVLNVLVSSGADAQLCVWNTDGWEKQRSKVLPLPQGRPNSAPSDTRVQFHQDQAHFLVVHETQLAIYETTKLECMKQWAVRESLAPITHATFSCDSQLVYASFMDATVCVFSSANLRLRCRVNPSAYLPASLSNSNVHPLVIAAHPQEPNMFAVGLSDGGVHIFEPLESEGKWGVAPPAENGSASGAPTAPSVGASASDQPQR
# partner: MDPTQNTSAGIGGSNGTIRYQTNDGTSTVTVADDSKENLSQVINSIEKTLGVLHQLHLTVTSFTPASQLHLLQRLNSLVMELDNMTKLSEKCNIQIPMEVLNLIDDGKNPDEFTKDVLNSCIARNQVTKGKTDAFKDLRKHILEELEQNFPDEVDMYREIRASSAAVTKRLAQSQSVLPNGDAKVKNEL
# B2: Protein TOPLESS (Arabidopsis thaliana (Mouse-ear cress)), Q94AI7 (parent)
# chain: B1 chain
# partner: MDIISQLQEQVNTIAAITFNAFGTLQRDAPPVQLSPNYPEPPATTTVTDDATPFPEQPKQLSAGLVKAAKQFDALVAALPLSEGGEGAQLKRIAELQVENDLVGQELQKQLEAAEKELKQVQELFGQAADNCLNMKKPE
# Variants of: B1
# Conditions: with md10b_arath MED10B
row,effect of a mutation on the interaction,Variant
1,decreasing interaction strength,V145A;E146A;K148A;K149A

# Variants of: B2
# Conditions: with med21_arath MED21, C0LU16
row,effect of a mutation on the interaction,Variant
1,decreasing interaction strength,K148A
2,decreasing interaction strength,V145A
3,decreasing interaction strength,E146A
4,decreasing interaction strength,K149A

# Variants of: B2
# Conditions: with med21_arath MED21, C0LU16
# Remark: another data set of the same source
row,effect of a mutation on the interaction,Variant
1,disrupting interaction strength,V145A;E146A;K148A;K149A
